Test results from patent publication US20200397816A1, “METHODS TO TREAT INFLAMMATORY AND SMOOTH MUSCLE CELL PROLIFERATION DISORDERS” (THE TRUSTEES OF INDIANA UNIVERSITY, priority 2019, published 2020).
Entries after “also recorded” stand apart in the source; their conditions may differ.

System: pSphK1 (Ser225)
Assay: pSphK1 (Ser225) immunoblotting and immunofluorescence in hPASMC
Format: cell-based, human
Conditions: SMCs
Method: RAW 264.7 (ATCC) mouse macrophages and Human Embryonic Kidney (HEK) 293T cells were cultured in DMEM media with 10% fetal bovine serum […] and glutamine HEPES buffer and beta-mercaptoethanol were added to the growth medium used for RAW 264.7 macrophages. […]
(§1) After appropriate treatments, protein lysates were prepared by using RIPA buffer supplemented with phosphatase and protease inhibitors (Thermo Fischer Scientific). […] Western blots were performed according to standard methods and quantified using densitometry using Image Studio Lite software from LI-COR Biosciences. […]
as §1, with “Fisher” for “Fischer”

B1: EMAP II: 6x-His tagged recombinant EMAP II, cleaved C-terminal peptide of AIMP1 (SEQ ID NO: 2), pro-inflammatory cytokine (protein)
chain: IAGSADSKPIDVSRLDLRIGCIITARKHPDADSLYVEEVDVGEIAPRTVVSGLVNHVPLEQMQNRMVILLCNLKPAKMRGVLSQAMVMCASSPEKIEILAPPNGSVPGDRITFDAFPGEPDKELNPKKKIWEQIQPDLHTNDECVATYKGVPFEVKGKGVCRAQTMSNSGIK
pSphK1 localization to the plasma membrane (immunostaining pSphK1 and actin, 15 minutes, 1 hour, 6 hours EMAP II): stimulated translocation; also recorded: trafficked to the plasma membrane; also recorded: increased pSPHK1 signal | SphK1 phosphorylation (pSphK1/Tubulin) (peaks at 1 and 6 hours of EMAP II): bi-modal SphK1 phosphorylation; also recorded: bimodal SPHK1 phosphorylation
